Experimental data taken from patent publication US20030224036A1, “Hla class I a2 tumor associated antigen peptides and vaccine compositions” (priority 1999, published 2003).
Each block holds one binder with its values, some of them ahead of it.

Legend:
Details in all cases: remark: other sources report otherwise
HLA-A*0201 (human) [1] = experiment: competitive inhibition assay, purified HLA
HLA-A*0201 (human) [2] = experiment: competitive binding assay, purified HLA
HLA-A*6802 (human) [3] = experiment: competitive inhibition assay, purified HLA
HLA-A*6802 (human) [4] = experiment: competitive binding assay, purified HLA
HLA-A*0206 (human) [5] = experiment: competitive inhibition assay, purified HLA
HLA-A*0206 (human) [6] = experiment: competitive binding assay, purified HLA

IC50 (HLA-A*0201 (human) [1]): 50 nM
IC50 (HLA-A*0201 (human) [2]): 50 nM
Binder: YLQLVFGIEV [MAGE2.157]

IC50 (HLA-A*6802 (human) [3]): 2000 nM
IC50 (HLA-A*6802 (human) [4]): 2000 nM
Binder: VVLGVVFGI [Her2/neu.665]

IC50 (HLA-A*0201 (human) [1]): 200 nM
Binder: VMAGVGSPYV [Her2/neu.773]

IC50 (HLA-A*0206 (human) [5]): 80 nM
IC50 (HLA-A*0206 (human) [6]): 80 nM
Binder: YLSGANLNV [CEA.605V9]
